Measured values from paper PMC7536876 (bioRxiv, 2020).

Legend:
Assay in all cases: native MS
[1] = molecular target: HCoV-229E nsp7–8-His6 precursor (HCoV-229E) (UniProt P0C6X1)
[2] = molecular target: PEDV nsp7–8-His6 precursor (PEDV (strain CV777)) (UniProt P0C6Y4)
[3] = molecular target: SARS-CoV nsp7–8-His6 precursor (SARS-CoV (strain Frankfurt-1)) (UniProt P0C6X7)
[4] = molecular target: the molecule itself

Molecule	stoichiometry N [4]	also measured
HCoV-229E nsp7–8-His6 precursor (from UniProt P0C6X1) (domain or fragment)	–	stoichiometry N [1]: 2
PEDV nsp7–8-His6 precursor (from UniProt P0C6Y4) (domain or fragment)	–	stoichiometry N [2]: 2
SARS-CoV nsp7–8-His6 precursor (from UniProt P0C6X7) (domain or fragment)	–	stoichiometry N [3]: 2
MERS-CoV nsp7 (natural protein) SKLTDLKCTSVVLLSVLQQLHLEANSRAWAFCVKCHNDILAATDPSEAFEKFVSLFATLMTFSGNVDLDALASDIFDTPSVLQ	2	–
PEDV nsp7 (natural protein) SKLTDIKCSNVVLLGCLSSMNVSANSTEWAYCVDLHNKINLCNDPEKAQEMLLALLAFFLSKNSAFGLDDLLESYFNDNSMLQ	2	–
FIPV nsp7 (natural protein) SKLTEMKCTNVVLLGLLSKMHVESNSKEWNYCVGLHNEINLCDDPDAVLEKLLALIAFFLSKHNTCDLSDLIESYFENTTILQ	2	–
